Numbered stars: 1 amine (or outer) side, 2 acyl side, 3 side chain; on linkers, the order of the positions; unused ones are H or OH. Bridge positions count the residues as written; N and C are the ends. Square brackets hold non-standard residues; d marks the D form. * marks the point of attachment. 5,5‑diMe‑P = 5,5-dimethyl-L-proline, CC1(C)CC[C@@H](C(=O)[*:2])N1[*:1]; DOTA = O=C(O)CN1CCN(CC(=O)O)CCN(CC(=O)*)CCN(CC(=O)O)CC1; Pro(4,4-F2) = O=C(O)[C@@H]1CC(F)(F)CN1; 1Nal = N[C@@H](Cc1cccc2ccccc12)C(=O)O; cisHyp = O=C(O)[C@@H]1C[C@H](O)CN1; hPhe = N[C@@H](CCc1ccccc1)C(=O)O; αMeP = C[C@@]1(C(=O)O)CCCN1; NMeA = CN[C@@H](C)C(=O)O; dNMeA = CN[C@H](C)C(=O)O; Aze = O=C(O)[C@@H]1CCN1; Ahx = NCCCCCC(=O)O
T1: Biotinylated human DLL3 (human, UniProt Q9NYJ7 27-492, biotinylated (site not stated))
T1 construct: also called Delta-like ligand 3; Delta Like Canonical Notch Ligand 3
T1 sequence (looked up): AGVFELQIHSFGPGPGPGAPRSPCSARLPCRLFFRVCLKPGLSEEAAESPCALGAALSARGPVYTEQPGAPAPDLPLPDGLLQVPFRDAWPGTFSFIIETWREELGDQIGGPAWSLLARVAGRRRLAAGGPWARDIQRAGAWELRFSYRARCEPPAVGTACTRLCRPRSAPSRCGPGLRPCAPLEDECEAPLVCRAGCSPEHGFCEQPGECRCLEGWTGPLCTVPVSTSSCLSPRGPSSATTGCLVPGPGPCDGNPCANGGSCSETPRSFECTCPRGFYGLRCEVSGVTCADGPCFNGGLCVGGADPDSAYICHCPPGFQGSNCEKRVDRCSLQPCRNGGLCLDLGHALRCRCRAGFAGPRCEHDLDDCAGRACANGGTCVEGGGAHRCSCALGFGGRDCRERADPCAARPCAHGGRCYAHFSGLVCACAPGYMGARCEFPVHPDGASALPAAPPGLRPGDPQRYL

B1: Cpd #31 (peptide)
peptide: Ac-SDCWLQWNCPFD[dK](DOTA)-NH2
modifications: disulfide 3-9
B2: Cpd #61 (peptide)
peptide: Ac-MSDCWLQ[1Nal]NCPFD[dK](DOTA)-NH2
modifications: disulfide 4-10
SMILES: CSCC[C@H](NC(C)=O)C(=O)N[C@@H](CO)C(=O)N[C@@H](CC(=O)O)C(=O)N[C@H]1CSSC[C@@H](C(=O)N2CCC[C@H]2C(=O)N[C@@H](Cc2ccccc2)C(=O)N[C@@H](CC(=O)O)C(=O)N[C@H](CCCCNC(=O)CN2CCN(CC(=O)O)CCN(CC(=O)O)CCN(CC(=O)O)CC2)C(N)=O)NC(=O)[C@H](CC(N)=O)NC(=O)[C@H](Cc2cccc3ccccc23)NC(=O)[C@H](CCC(N)=O)NC(=O)[C@H](CC(C)C)NC(=O)[C@H](Cc2c[nH]c3ccccc23)NC1=O
B3: Cpd #30 (peptide)
peptide: Ac-MSDCWLQWNCPFD[dK](DOTA)-NH2
modifications: disulfide 4-10
B4: Cpd #83 (peptide)
peptide: Ac-KSDCWLQWNCPFD[dK](DOTA)-NH2
modifications: disulfide 4-10
B5: Cpd #84 (peptide)
peptide: Ac-[dK]SDCWLQWNCPFD[dK](DOTA)-NH2
modifications: disulfide 4-10
B6: Cpd #52 (peptide)
peptide: Ac-MSDCWLQWNC[Pro(4,4-F2)]FD[dK](DOTA)-NH2
modifications: disulfide 4-10
B7: Cpd #45 (peptide)
peptide: Ac-MSDCWLQWNC[cisHyp]FD[dK](DOTA)-NH2
modifications: disulfide 4-10
B8: Cpd #50 (peptide)
peptide: Ac-MSDCWLQWNC[dNMeA]FD[dK](DOTA)-NH2
modifications: disulfide 4-10
SMILES: CSCC[C@H](NC(C)=O)C(=O)N[C@@H](CO)C(=O)N[C@@H](CC(=O)O)C(=O)N[C@H]1CSSC[C@@H](C(=O)N(C)[C@H](C)C(=O)N[C@@H](Cc2ccccc2)C(=O)N[C@@H](CC(=O)O)C(=O)N[C@H](CCCCNC(=O)CN2CCN(CC(=O)O)CCN(CC(=O)O)CCN(CC(=O)O)CC2)C(N)=O)NC(=O)[C@H](CC(N)=O)NC(=O)[C@H](Cc2c[nH]c3ccccc23)NC(=O)[C@H](CCC(N)=O)NC(=O)[C@H](CC(C)C)NC(=O)[C@H](Cc2c[nH]c3ccccc23)NC1=O
B9: Cpd #41 (peptide)
peptide: {DOTA}-[Ahx]SDCWLQWNCP[hPhe]D-NH2
modifications: disulfide 4-10
SMILES: CC(C)C[C@@H]1NC(=O)[C@H](Cc2c[nH]c3ccccc23)NC(=O)[C@@H](NC(=O)[C@H](CC(=O)O)NC(=O)[C@H](CO)NC(=O)CCCCCNC(=O)CN2CCN(CC(=O)O)CCN(CC(=O)O)CCN(CC(=O)O)CC2)CSSC[C@@H](C(=O)N2CCC[C@H]2C(=O)N[C@@H](CCc2ccccc2)C(=O)N[C@@H](CC(=O)O)C(N)=O)NC(=O)[C@H](CC(N)=O)NC(=O)[C@H](Cc2c[nH]c3ccccc23)NC(=O)[C@H](CCC(N)=O)NC1=O
B10: Cpd #19 (peptide)
peptide: Ac-ASDCWLQWNCPFD-NH2
modifications: disulfide 4-10
SMILES: CC(=O)N[C@@H](C)C(=O)N[C@@H](CO)C(=O)N[C@@H](CC(=O)O)C(=O)N[C@H]1CSSC[C@@H](C(=O)N2CCC[C@H]2C(=O)N[C@@H](Cc2ccccc2)C(=O)N[C@@H](CC(=O)O)C(N)=O)NC(=O)[C@H](CC(N)=O)NC(=O)[C@H](Cc2c[nH]c3ccccc23)NC(=O)[C@H](CCC(N)=O)NC(=O)[C@H](CC(C)C)NC(=O)[C@H](Cc2c[nH]c3ccccc23)NC1=O
B11: Cpd #24 (peptide)
peptide: Ac-MSDCWLAWNCPFD-NH2
modifications: disulfide 4-10
SMILES: CSCC[C@H](NC(C)=O)C(=O)N[C@@H](CO)C(=O)N[C@@H](CC(=O)O)C(=O)N[C@H]1CSSC[C@@H](C(=O)N2CCC[C@H]2C(=O)N[C@@H](Cc2ccccc2)C(=O)N[C@@H](CC(=O)O)C(N)=O)NC(=O)[C@H](CC(N)=O)NC(=O)[C@H](Cc2c[nH]c3ccccc23)NC(=O)[C@H](C)NC(=O)[C@H](CC(C)C)NC(=O)[C@H](Cc2c[nH]c3ccccc23)NC1=O
B12: Cpd #28 (peptide)
peptide: Ac-MSDCWLQWNCPAD-NH2
modifications: disulfide 4-10
SMILES: CSCC[C@H](NC(C)=O)C(=O)N[C@@H](CO)C(=O)N[C@@H](CC(=O)O)C(=O)N[C@H]1CSSC[C@@H](C(=O)N2CCC[C@H]2C(=O)N[C@@H](C)C(=O)N[C@@H](CC(=O)O)C(N)=O)NC(=O)[C@H](CC(N)=O)NC(=O)[C@H](Cc2c[nH]c3ccccc23)NC(=O)[C@H](CCC(N)=O)NC(=O)[C@H](CC(C)C)NC(=O)[C@H](Cc2c[nH]c3ccccc23)NC1=O
B13: Cpd #21 (peptide)
peptide: Ac-MSACWLQWNCPFD-NH2
modifications: disulfide 4-10
SMILES: CSCC[C@H](NC(C)=O)C(=O)N[C@@H](CO)C(=O)N[C@@H](C)C(=O)N[C@H]1CSSC[C@@H](C(=O)N2CCC[C@H]2C(=O)N[C@@H](Cc2ccccc2)C(=O)N[C@@H](CC(=O)O)C(N)=O)NC(=O)[C@H](CC(N)=O)NC(=O)[C@H](Cc2c[nH]c3ccccc23)NC(=O)[C@H](CCC(N)=O)NC(=O)[C@H](CC(C)C)NC(=O)[C@H](Cc2c[nH]c3ccccc23)NC1=O
B14: Cpd #22 (peptide)
peptide: Ac-MSDCALQWNCPFD-NH2
modifications: disulfide 4-10
SMILES: CSCC[C@H](NC(C)=O)C(=O)N[C@@H](CO)C(=O)N[C@@H](CC(=O)O)C(=O)N[C@H]1CSSC[C@@H](C(=O)N2CCC[C@H]2C(=O)N[C@@H](Cc2ccccc2)C(=O)N[C@@H](CC(=O)O)C(N)=O)NC(=O)[C@H](CC(N)=O)NC(=O)[C@H](Cc2c[nH]c3ccccc23)NC(=O)[C@H](CCC(N)=O)NC(=O)[C@H](CC(C)C)NC(=O)[C@H](C)NC1=O
B15: Cpd #29 (peptide)
peptide: Ac-MSDCWLQWNCPFA-NH2
modifications: disulfide 4-10
SMILES: CSCC[C@H](NC(C)=O)C(=O)N[C@@H](CO)C(=O)N[C@@H](CC(=O)O)C(=O)N[C@H]1CSSC[C@@H](C(=O)N2CCC[C@H]2C(=O)N[C@@H](Cc2ccccc2)C(=O)N[C@@H](C)C(N)=O)NC(=O)[C@H](CC(N)=O)NC(=O)[C@H](Cc2c[nH]c3ccccc23)NC(=O)[C@H](CCC(N)=O)NC(=O)[C@H](CC(C)C)NC(=O)[C@H](Cc2c[nH]c3ccccc23)NC1=O
B16: Cpd #27 (peptide)
peptide: Ac-MSDCWLQWNCAFD-NH2
modifications: disulfide 4-10
SMILES: CSCC[C@H](NC(C)=O)C(=O)N[C@@H](CO)C(=O)N[C@@H](CC(=O)O)C(=O)N[C@H]1CSSC[C@@H](C(=O)N[C@@H](C)C(=O)N[C@@H](Cc2ccccc2)C(=O)N[C@@H](CC(=O)O)C(N)=O)NC(=O)[C@H](CC(N)=O)NC(=O)[C@H](Cc2c[nH]c3ccccc23)NC(=O)[C@H](CCC(N)=O)NC(=O)[C@H](CC(C)C)NC(=O)[C@H](Cc2c[nH]c3ccccc23)NC1=O
B17: Cpd #49 (peptide)
peptide: Ac-MSDCWLQWNC[NMeA]FD[dK](DOTA)-NH2
modifications: disulfide 4-10
SMILES: CSCC[C@H](NC(C)=O)C(=O)N[C@@H](CO)C(=O)N[C@@H](CC(=O)O)C(=O)N[C@H]1CSSC[C@@H](C(=O)N(C)[C@@H](C)C(=O)N[C@@H](Cc2ccccc2)C(=O)N[C@@H](CC(=O)O)C(=O)N[C@H](CCCCNC(=O)CN2CCN(CC(=O)O)CCN(CC(=O)O)CCN(CC(=O)O)CC2)C(N)=O)NC(=O)[C@H](CC(N)=O)NC(=O)[C@H](Cc2c[nH]c3ccccc23)NC(=O)[C@H](CCC(N)=O)NC(=O)[C@H](CC(C)C)NC(=O)[C@H](Cc2c[nH]c3ccccc23)NC1=O
B18: Cpd #48 (peptide)
peptide: Ac-MSDCWLQWNC[Aze]FD[dK](DOTA)-NH2
modifications: disulfide 4-10
B19: Cpd #51 (peptide)
peptide: Ac-MSDCWLQWNC[αMeP]FD[dK](DOTA)-NH2
modifications: disulfide 4-10
B20: Cpd #46 (peptide)
peptide: Ac-MSDCWLQWNC[5,5‑diMe‑P]FD[dK](DOTA)-NH2
modifications: disulfide 4-10
SMILES: CSCC[C@H](NC(C)=O)C(=O)N[C@@H](CO)C(=O)N[C@@H](CC(=O)O)C(=O)N[C@H]1CSSC[C@@H](C(=O)N2[C@H](C(=O)N[C@@H](Cc3ccccc3)C(=O)N[C@@H](CC(=O)O)C(=O)N[C@H](CCCCNC(=O)CN3CCN(CC(=O)O)CCN(CC(=O)O)CCN(CC(=O)O)CC3)C(N)=O)CCC2(C)C)NC(=O)[C@H](CC(N)=O)NC(=O)[C@H](Cc2c[nH]c3ccccc23)NC(=O)[C@H](CCC(N)=O)NC(=O)[C@H](CC(C)C)NC(=O)[C@H](Cc2c[nH]c3ccccc23)NC1=O

What follows are binders tested against T1, Biotinylated human DLL3 (assay: SPR, biotin-hDLL3 on SA chip).

Q: Which Kd does the source give for B1 here?
A: 25.5 nM

Q: B2 was tested. Which Kd did it give?
A: 2.72 nM

Q: How did the Kd turn out when B3 was run?
A: 8.6 nM

Q: Which Kd does the source give for B4 here?
A: 32 nM

Q: For B5, which Kd is on record?
A: 29 nM

Q: For B6, which Kd is on record?
A: 17 nM

Q: With B7 as the binder, how does the Kd read?
A: 40.6 nM

Q: With B8 as the binder, how does the Kd read?
A: 4.94 nM

Q: For B9, which Kd is on record?
A: 83 nM

Q: Which Kd does the source give for B10 here?
A: 21 nM

Q: For B11, which Kd is on record?
A: 4.9 nM

Q: Does B12 bind?
A: no binding

Q: B13 was tested. Which Kd did it give?
A: 80 nM

Q: Does B14 bind?
A: no binding

Q: Does B15 bind?
A: no binding

Q: Does B16 bind?
A: no binding

Q: How did the Kd turn out when B17 was run?
A: 19.6 nM

Q: With B18 as the binder, how does the Kd read?
A: 64 nM

Q: For B19, which Kd is on record?
A: 2.6 nM

Q: B20 was tested. Which Kd did it give?
A: 12 nM
